72 molecules from patent US20250011363A1, “OPTIMIZED SHORTENED PEPTIDE THAT BINDS TO ACETYLCHOLINE RECEPTOR, AND USE THEREOF” (SKINMED CO., LTD., priority 2021, published 2025) can be followed below.

Assay [1] has as its target acetylcholine receptor. The assay can be described thus: SPR, AchR on chip, peptide 10 uM.
Assay [2] deals with acetylcholine receptor. Description: SPR, AchR immobilised on chip, peptide 10 uM.

KQYLR [5mer-316] gave a Binding affinity (RU) in the assay with acetylcholine receptor [1] of 73 RU.

As to RMHMK [5mer-1110], in the assay with acetylcholine receptor [2], the Binding affinity (RU) amounted to 13 RU.

KSRQR [5mer-310] registered a Binding affinity (RU) with acetylcholine receptor [1] of 78 RU.

On to KQRCK [5mer-307], for which the Binding affinity (RU) with acetylcholine receptor [1] is 82 RU.

For RFSDR [5mer-803], in the assay with acetylcholine receptor [2], the Binding affinity (RU) worked out at 11 RU.

For the molecule KTHKK [5mer-1102], the Binding affinity (RU) with acetylcholine receptor [2] turned out to be 20 RU.

For KSQRR [5mer-324], the Binding affinity (RU) with acetylcholine receptor [1] was 58 RU.

KVVYK [5mer-25] returned a Binding affinity (RU) with acetylcholine receptor [1] of 60 RU.

In the assay with acetylcholine receptor [1], RLISK [5mer-13] registered a Binding affinity (RU) of 52 RU.

KWLYK [5mer-23] registered a Binding affinity (RU) with acetylcholine receptor [1] of 86 RU.

RVVQR [5mer-320] came in with a Binding affinity (RU) with acetylcholine receptor [1] of 75 RU.

RVQRR [5mer-10]: the Binding affinity (RU) with acetylcholine receptor [1] is 55 RU.

In the assay with acetylcholine receptor [1], RWYLK [5mer-248] gave a Binding affinity (RU) of 63 RU.

In the case of KWLCK [5mer-548], the Binding affinity (RU) with acetylcholine receptor [1] was 60 RU.

With RGVQR [5mer-9], the Binding affinity (RU) with acetylcholine receptor [1] came to 77 RU.

In turn, KRIQR [5mer-325] came in with a Binding affinity (RU) in the assay with acetylcholine receptor [1] of 50 RU.

In the assay with acetylcholine receptor [2], RNTIR [5mer-804] yielded a Binding affinity (RU) of 20 RU.

As to RWLCK [5mer-14], in the assay with acetylcholine receptor [1], the Binding affinity (RU) came to 63 RU.

As for KRFLR [5mer-4], in the assay with acetylcholine receptor [1], the Binding affinity (RU) is 58 RU.

Consider RQRSR [5mer-8], for which the Binding affinity (RU) in the assay with acetylcholine receptor [1] came out at 51 RU.

In turn, RETHK [5mer-1104] came in with a Binding affinity (RU) in the assay with acetylcholine receptor [2] of 12 RU.

Molecule RVQTR [5mer-319] yielded a Binding affinity (RU) in the assay with acetylcholine receptor [1] of 74 RU.

In turn, KFHKK [5mer-810] had a Binding affinity (RU) with acetylcholine receptor [2] of 11 RU.

Molecule KRICK [5mer-305] showed a Binding affinity (RU) with acetylcholine receptor [1] of 72 RU.

With KEAPR [5mer-800], the Binding affinity (RU) with acetylcholine receptor [2] came to 29 RU.

Molecule KRYCR [5mer-312] displayed a Binding affinity (RU) with acetylcholine receptor [1] of 81 RU.

RYTER [5mer-1106] gave a Binding affinity (RU) with acetylcholine receptor [2] of 18 RU.

In the case of KRIYK [5mer-17], the Binding affinity (RU) with acetylcholine receptor [1] was 70 RU.

In the case of RSQLK [5mer-313], the Binding affinity (RU) with acetylcholine receptor [1] was found to be 75 RU.

The molecule RWYCR [5mer-247] had a Binding affinity (RU) with acetylcholine receptor [1] of 80 RU.

Molecule RITVR [5mer-802] registered a Binding affinity (RU) in the assay with acetylcholine receptor [2] of 27 RU.

For the molecule RATAR [5mer-1099], in the assay with acetylcholine receptor [2], the Binding affinity (RU) is 14 RU.

RSLSR [5mer-321] showed a Binding affinity (RU) in the assay with acetylcholine receptor [1] of 68 RU.

Consider KSQCR [5mer-24], for which the Binding affinity (RU) in the assay with acetylcholine receptor [1] is 67 RU.

Turning to KDKPR [5mer-799], in the assay with acetylcholine receptor [2], the Binding affinity (RU) turned out to be 24 RU.

KWFTR [5mer-21] gave a Binding affinity (RU) with acetylcholine receptor [1] of 63 RU.

Consider RKSGK [5mer-809], for which the Binding affinity (RU) with acetylcholine receptor [2] was found to be 15 RU.

Consider KKSHR [5mer-1103], for which the Binding affinity (RU) in the assay with acetylcholine receptor [2] came out at 18 RU.

For the molecule RPTNR [5mer-805], the Binding affinity (RU) in the assay with acetylcholine receptor [2] is 27 RU.

In the assay with acetylcholine receptor [1], RQLRR [5mer-18] returned a Binding affinity (RU) of 69 RU.

With KYKNR [5mer-1101], the Binding affinity (RU) with acetylcholine receptor [2] is 11 RU.

Turning to RLRCR [5mer-308], in the assay with acetylcholine receptor [1], the Binding affinity (RU) was 84 RU.

Consider KLFLR [5mer-5], for which, in the assay with acetylcholine receptor [1], the Binding affinity (RU) worked out at 54 RU.

KLYTK [5mer-16] registered a Binding affinity (RU) with acetylcholine receptor [1] of 66 RU.

The molecule KSYYR [5mer-306] returned a Binding affinity (RU) in the assay with acetylcholine receptor [1] of 74 RU.

For the molecule KCHPK [5mer-1109], in the assay with acetylcholine receptor [2], the Binding affinity (RU) came to 14 RU.

As for RGRYK [5mer-20], the Binding affinity (RU) with acetylcholine receptor [1] turned out to be 78 RU.

KRFQR [5mer-19] showed a Binding affinity (RU) in the assay with acetylcholine receptor [1] of 72 RU.

Consider KQVTK [5mer-547], for which, in the assay with acetylcholine receptor [1], the Binding affinity (RU) came out at 77 RU.

In the assay with acetylcholine receptor [1], RQQLK [5mer-22] yielded a Binding affinity (RU) of 66 RU.

The molecule RSVRK [5mer-304] yielded a Binding affinity (RU) with acetylcholine receptor [1] of 76 RU.

RNPIR [5mer-1108] registered a Binding affinity (RU) with acetylcholine receptor [2] of 19 RU.

For the molecule RPWHK [5mer-1107], the Binding affinity (RU) with acetylcholine receptor [2] came out at 21 RU.

In the assay with acetylcholine receptor [1], RVFLR [5mer-12] came in with a Binding affinity (RU) of 70 RU.

For the molecule KRVCK [5mer-318], in the assay with acetylcholine receptor [1], the Binding affinity (RU) turned out to be 64 RU.

As for RRQSR [5mer-322], in the assay with acetylcholine receptor [1], the Binding affinity (RU) was determined as 84 RU.

Take RPTKR [5mer-1105]: in the assay with acetylcholine receptor [2], the Binding affinity (RU) was 33 RU.

With KGVCK [5mer-15], in the assay with acetylcholine receptor [1], the Binding affinity (RU) came out at 75 RU.

For the molecule RKNKK [5mer-807], the Binding affinity (RU) with acetylcholine receptor [2] came out at 20 RU.

For the molecule KVQYR [5mer-309], the Binding affinity (RU) with acetylcholine receptor [1] was 70 RU.

In turn, KWYYR [5mer-323] yielded a Binding affinity (RU) in the assay with acetylcholine receptor [1] of 77 RU.

In the assay with acetylcholine receptor [1], RQLTK [5mer-7] gave a Binding affinity (RU) of 54 RU.

On to RPWKR [5mer-1100], for which the Binding affinity (RU) in the assay with acetylcholine receptor [2] worked out at 24 RU.

Regarding KFCIR [5mer-808], the Binding affinity (RU) in the assay with acetylcholine receptor [2] stood at 13 RU.

The molecule KQRLR [5mer-11] displayed a Binding affinity (RU) with acetylcholine receptor [1] of 84 RU.

Regarding RKMFR [5mer-806], the Binding affinity (RU) with acetylcholine receptor [2] turned out to be 17 RU.

KFHGR [5mer-801]: the Binding affinity (RU) in the assay with acetylcholine receptor [2] came out at 20 RU.

Molecule RWQQK [5mer-6] yielded a Binding affinity (RU) with acetylcholine receptor [1] of 61 RU.

As for RWYTR [5mer-314], the Binding affinity (RU) with acetylcholine receptor [1] came to 80 RU.

In the assay with acetylcholine receptor [1], KGRYR [5mer-303] gave a Binding affinity (RU) of 87 RU.

The molecule RRVQR [5mer-317] registered a Binding affinity (RU) in the assay with acetylcholine receptor [1] of 86 RU.

KLFSR [5mer-315] came in with a Binding affinity (RU) with acetylcholine receptor [1] of 77 RU.
